From patent publication US20210032351A1 (XDCEXPLORER SHANGHAI, published 2021)
Blank lines part the entries; values can stand above or below the binder they belong to.

Tests used:
[1] = target: T1, human EGFRvIII protein on the surface of U87MG-hEGFRvIII cells (human, UniProt P00533 25-1210); assay: cell-based or functional assay
[2] = target: T2, EGFR-his (purchased from Sino Biological) (UniProt P00533 25-645); assay: BLI (OctetRED), antibody on anti-human Fc (AHC) biosensor, EGFR-his in solution
T2 construct: Bought protein; also called EGFR protein; not shown: his tag
Text: (§1) BLI technology involves: detecting the interaction of the molecules fixed on the sensor with the molecules in the solution, which results in that the biofilm thickness is increased, and the interference spectrum curve is shifted along the direction of increased wavelength, wherein the phase shift of light waves can be detected by workstation in real time, and analyzed to quantitatively obtain the changes in the number of molecules on the sensor surface and related concentration and kinetic data.

[3] = target: T3, EGFRvIII-his (purchased from Sino Biological) (UniProt P00533 25-645); assay: BLI (OctetRED), antibody on anti-human Fc (AHC) biosensor, EGFRvIII-his in solution
T3 construct: Bought protein; also called EGFRvIII protein; not shown: his tag
Text: as §1

[4] = target: T4, wild-type human EGFR protein on the surface of cells (A431, HEB, U87MG) (human, UniProt P00533 25-1210); assay: FACS on A431 cells
T4 construct: whole, on cells; One molecule for all three cell lines; the cell line is named under assay; also called wild-type EGFR
Protocol: (§2) The collected cells are suspended to 2×10⁶ cells/mL with an FACS buffer (HBSS+1% BSA, with the percentage being the mass percentage), added to a 96-well FACS reaction plate at 100 μL/well, then added with 100 μL/well of the purified EGFRvIII antibody (samples to be tested) obtained in example 2, and incubated on ice for 2 hours. The plate is centrifugally washed twice with the FACS buffer, added with 100 μL/well of a fluorescence (Alexa 488) labeled secondary antibody (purchased from Invitrogen), and then incubated on ice for 1 hour. The plate is centrifugally washed 3 times with the FACS buffer, added with 100 μL/well of a fixing solution [4% (v/v) paraformaldehyde] for suspending the cells, and centrifugally washed twice with the FACS buffer after 10 minutes. The cells are suspended in 100 μL of the FACS buffer, and the results are detected and analyzed by FACS (FACS Calibur, purchased from BD). Data analysis is performed by using the software (CellQuest) to obtain the mean fluorescence intensity (MFI) of the cells. Data is further analyzed by using the software (GraphPad Prism5) to perform data fitting and calculate EC50. […] A431 cells (human epidermal cell cancer cell lines) have a large amount of wild-type EGFR protein expressed on the surface thereof. […] U87MG cells (human glioma cell lines) have a small amount of wild-type EGFR protein expressed on the surface thereof, while HEB cells (human glioma cell lines) have a high level of wild-type EGFR protein expression on the surface thereof.

[5] = target: T1, human EGFRvIII protein on the surface …; assay: FACS on U87MG-hEGFRvIII cells
Protocol: as §2, with “The cells are washed twice with the HBSS buffer and are counted, and then the cells are diluted with the HBSS buffer to 2×10⁶ cells/ml, added with 1% goat serum blocking solution, with the percentage being the mass percentage, and incubated on ice for 30 minutes, and then centrifugally washed twice with the HBSS buffer. The collected” for “The collected”

B1: Murine anti-64B11-MMAF (antibody, V domains shown)
VH: EVQLQQSGAELVKPGASVKLSCTASGFNIKDYYMHWVKQRTEQGLEWIGRIDPEDGETKYAPKFQGKATITADTSSNTAYLQLSNLPSEDTAVYYCGCRTGGFAYWGQGTLVTVSA
VL: DILMTQSPSSMSVSLGDTVSITCHASQGINSNIGWLQQKPGKSFKALIYHGTNLEDGVPSRFSGSGSGADYSLTISSLESEDFADYYCVQYAQFPFTFGSGTELEIK
IC50, cell killing of U87MG-hEGFRvIII cells (CellTiter-Glo) [1]: 0.04 nM

B2: Chimeric antibody c75G7C6 (antibody, human IgG1, V domains shown)
VH: EVQLQQSGPELVKPGASVKIPCKASGYTFTDYNMDWVKQSHGKSLEWIGDINPNNGDTIYNQKFKGKATLTVDKSSSTAYMELRSLTSEDTAVYYCARGDYDGYYPVYYAMDYWGQGTSVTVSS
VL: ENVLTQSPAIMSASPGEKVTMTCRASSSVSSSYLHWYQQKSGASPKLWIFSTSNLAAGVPARFSGSGSGTSYSLTVSSVEAEDAATYYCQQYSGYPLTFGAGTKLELK
notes: also called chimeric antibody 75G7
Kd [2]: 220 nM
koff [2]: 0.00362 s⁻¹
kon [2]: 16500 M⁻¹ s⁻¹
Kd [3]: 1.45 nM
koff [3]: 0.000132 s⁻¹
kon [3]: 91400 M⁻¹ s⁻¹

B3: Humanized antibody h75G7C6-9 (antibody, human IgG1, V domains shown)
VH: QVQLVQSGAEVKKPGASVKVSCKASGYTFTDYNMDWVRQAPGQGLEWIGDINPNNADTIYNQKFKGRVTLTVDTSTSTVYMELSSLRSEDTAVYYCARGDYDGYYPVYYAMDYWGQGTTVTVSS
VL: EIVLTQSPATLSLSPGERATLSCRASSSVSSSYLHWYQQKPGQAPRLLIYSTSNLAAGIPARFSGSGSGTDFTLTISSLEPEDFAVYYCQQYSGYPLTFGGGTKVEIK
notes: Human IgG1 constant region, human kappa constant region
Kd [2]: 215 nM
koff [2]: 0.00435 s⁻¹
kon [2]: 20200 M⁻¹ s⁻¹
Kd [3]: 1.77 nM
koff [3]: 0.000175 s⁻¹
kon [3]: 98900 M⁻¹ s⁻¹

B7: Murine anti-49G12 (antibody, V domains shown)
VH: EVQLLQSGAELVKPGASVKLSCTASGFNIKDYYMHWVKQRTEQGLEWIGRIDPEDGETKYAPKFQGKATMTADTSSNTAYLQLSSLTSEDTAVYYCASSAYYGRNYWGQGTTLTVSS
VL: QIVLTQSPAIMSASPGEKVTLTCSASSSLSSSYLYWYQQKPGSSPKLWIYSTSNLASGVPARFSGSGSGTSYSLTISSMEAEDAASYFCHQWSSYPYTFGGGTKLEIK
notes: Mouse hybridoma antibody; also called 49G12G5
binding result [4]: no binding
EC50 [5]: 7.9 nM

Now from value to binder:

Kd [2]: 211 nM
koff [2]: 0.00476 s⁻¹
kon [2]: 22500 M⁻¹ s⁻¹
Kd [3]: 1.45 nM
koff [3]: 0.000181 s⁻¹
kon [3]: 125000 M⁻¹ s⁻¹
B4: Humanized antibody h75G7C6-13 (antibody, human IgG1, V domains shown)
VH: QVQLVQSGAEVKKPGASVKVSCKASGYTFTDYNMDWVKQAPGQGLEWIGDINPNNADTIYNQKFKGRVTLTVDKSTSTVYMELSSLRSEDTAVYYCARGDYDGYYPVYYAMDYWGQGTTVTVSS
VL: EIVLTQSPATLSLSPGERATLSCRASSSVSSSYLHWYQQKPGQAPRLLIYSTSNLAAGIPARFSGSGSGTDFTLTISSLEPEDFAVYYCQQYSGYPLTFGGGTKVEIK
notes: as for B3

binding result [4]: no binding
EC50 [5]: 6.8 nM
B5: Murine anti-53D8 (antibody, V domains shown)
VH: QVQLQQSGAELARPGASVKMSCKASGYTFTSYTMHWVKQRPGQGLEWIGYINPSSGYTKYNQIFKDKATLTADKSSSTAYMQLSSLTSEDSAVYYCTRGGGRGFAYWGQGTLVTVSA
VL: DILMTQSPSSMSVSLGDTVSITCHASQDINSNIGWLQQKPGKSFKGLIYHGTNLEDGVPSRFSGSGSGADYSLTISSLESEDFADYYCVQYAQFPFTFGSGTKLEIK
notes: Mouse hybridoma antibody; also called 53D8H4

binding result [4]: no binding
EC50 [5]: 13.3 nM
B6: Murine anti-46C4 (antibody, V domains shown)
VH: EVHLQQSVAELVRPGASVKLSCTASGFNIKNTYMHWVKQRPEQGLEWIGRIDPANGNTKYAPKFQGKATITADTSSNTAYLQLSSLTSEDTAIYYCASDFDYWGQGTTLTVSS
VL: DVLMTQTPLSLPVSLGDQVSISCRSSQSIVNSNGNTHLEWYLQKPGQSPKVLIYKVSKRFSGVPDRFSGSGSGTDFTLKISRVEAEDLGVYYCFQGSHVPYTFGGGTKLEIK
notes: Mouse hybridoma antibody; also called 46C4A6

binding result [4]: no binding
EC50 [5]: 26.2 nM
B8: Murine anti-51G7 (antibody, V domains shown)
VH: EVQLQQSGAELVKPGASVKLSCTASGFNIKDFYIHWVKQRTEQGLEWIGRIDPEDGETKYAPKFQDKATIIADTSSNTAYLQLSSLTSEDTAVYYCASSSYYGNNYWGQGTTLTVSS
VL: QIVLTQSPAIMSASPGEKVTLTCSASSSVSSNYLYWYQQKPGSSPKLWIYSTSNLASGVPARFSGSGSGTSYSLTISSMEAEDAASYFCHQWSSFPYTFGGGTKLEIK
notes: Mouse hybridoma antibody; also called 51G7C2

binding result [4]: no binding
EC50 [5]: 12.3 nM
B9: Murine anti-56F10 (antibody, V domains shown)
VH: EVQLQQSGAELVKPGASVKLSCTASGFNIKDFYMHWVKQRTEQGLEWIGRIDPEDGETKYAPKFQGKATITADTSSNTAYLQLSSLTSEDTAVYYCGCRTGGFAYWGQGTLVTVSA
VL: QIVLTQSPAIMSASPGEKVTMTCSASSSVSYLYWYQQKPGSSPSLLIYDTSNLASGVPVRFSGSGSGTSYSLTISRMEAEDAATYYCQQWSRNPWTFGGGTKLEIK
notes: Mouse hybridoma antibody; also called 56F10G2

binding result [4]: no binding
EC50 [5]: 40.9 nM
B10: Murine anti-59G3 (antibody, V domains shown)
VH: DVQLQESGPGLVKPSQSLSLTCSVTGYSITSGYYWHWIRQFPENKLEWMGYISYDGSNIYNPSLKNRISITRDTSKNQFFLKLNSVTTEDTATYYCAINSDYALDYWGQGTSVTVSS
VL: QIVLTQSPAIMSASPGEKVTMTCSASSSVSYMYWYQQKPGSSPRLLIYDTSNLASGVPVRFSGSGSGTSYSLTISRMEAEDAATYYCQQWSSYSLTFGAGTKLELK
notes: Mouse hybridoma antibody; also called 59G3F12

binding result [4]: no binding
EC50 [5]: 25.3 nM
B11: Murine anti-64B11 (antibody, V domains shown)
VH: EVQLQQSGAELVKPGASVKLSCTASGFNIKDYYMHWVKQRTEQGLEWIGRIDPEDGETKYAPKFQGKATITADTSSNTAYLQLSNLPSEDTAVYYCGCRTGGFAYWGQGTLVTVSA
VL: DILMTQSPSSMSVSLGDTVSITCHASQGINSNIGWLQQKPGKSFKALIYHGTNLEDGVPSRFSGSGSGADYSLTISSLESEDFADYYCVQYAQFPFTFGSGTELEIK
notes: Mouse hybridoma antibody; also called 64B11F2
